{"source": "patent US20180105596A1", "about": "(ELSALYS BIOTECH, published 2018)", "binders": {"B1": {"name": "anti-Tyro3 scFv 2414 (scFv, V domains shown)", "VH": "EVQLVQSGADVKKPGASLTISCQASGYTFTDYWISWVRQKPGKGLEWMGQINRHASNTMYGPSFQGHVTISADRSTATAYLQWRSLEASDTAMYYCVRSGGATSGGTIPEYYQHWGPGTLVTVSS", "VL": "SYELTQPPSVSVSPGQTARITCSGDALPKKYAYWYQQKSGQAPVLVIYEDWKRASGIPERFSGSSSGTMATLTISGAQVEDEADYYCYSQERKGNYFVFGGGTKLTVL", "notes": "Tested as a single-chain Fv made in E. coli"}, "B2": {"name": "anti-Tyro3 scFv 2713 (scFv, V domains shown)", "VH": "B1 VH with Q50R, N52S, A55G, N57Q, M59Y, S99A, A102Q", "VL": "B1 VL with W51H, Q90I, E91S, R92P, K93A, F97G", "notes": "as for B1"}, "B3": {"name": "anti-Tyro3 scFv 2415 (scFv, V domains shown)", "VH": "B1 VH with N52R, R53G, H54P, N57A, M59H, S99H, G100Q, G101Q, A102Q", "VL": "B1 VL with W51K, A54I, Q90T, E91S, R92T, K93G, F97M", "notes": "as for B1"}, "B4": {"name": "anti-Tyro3 scFv 2711 (scFv, V domains shown)", "VH": "B1 VH with N52R, R53G, H54Q, A55H, N57S, M59L, S99H, G101A, A102S", "VL": "B1 VL with W51A, A54S, Q90L, E91S, R92D, K93S", "notes": "as for B1"}, "B5": {"name": "anti-Tyro3 scFv 2709 (scFv, V domains shown)", "VH": "B1 VH with Q50A, N52S, H54N, A55G, N57T, M59Y, A102L, T122P", "VL": "B1 VL with W51K, A54V, Q90L, E91A, R92V, K93D, F97G", "notes": "as for B1"}, "B6": {"name": "anti-Tyro3 scFv 2717 (scFv, V domains shown)", "VH": "EVQLVQSGADVKKPGASLTISCQASGYTFTDYWISWVRQKPGKGLEWMGEIFLPPSTTVYGPSFQGHVTISADRSTATAYLQWRSLEASDTAMYYCVRQTRLTSGGTIPEYYQHWGPGTLVTVSS", "VL": "B1 VL with W51N, A54G, Q90K, E91S, R92P, K93E, F97M", "notes": "as for B1"}, "B7": {"name": "anti-Tyro3 scFv 2412 (scFv, V domains shown)", "VH": "B1 VH with Q50R, N52R, R53P, H54L, A55L, N57H, G100W, G101L", "VL": "B1 VL with W51A, A54V, Q90A, E91S, R92A, K93N, F97R", "notes": "as for B1"}, "B8": {"name": "anti-Tyro3 scFv 2410 (scFv, V domains shown)", "VH": "B1 VH with N52V, R53P, H54R, N57R, M59N, S99P, G100Y, G101F, A102Q", "VL": "B1 VL with W51E, K93N, F97A", "notes": "as for B1"}}, "note": "Where a chain is given by its changes, count along the chain named."}
{"target": "T1, extracellular domain of human Axl, Fc fusion (R&D Systems 154-AL-100) (human, UniProt P30530 26-451)", "T1 construct": "Bought protein; also called hAxl; hAXL; not shown: Fc of the bought ECD-Fc fusion", "T1 sequence": "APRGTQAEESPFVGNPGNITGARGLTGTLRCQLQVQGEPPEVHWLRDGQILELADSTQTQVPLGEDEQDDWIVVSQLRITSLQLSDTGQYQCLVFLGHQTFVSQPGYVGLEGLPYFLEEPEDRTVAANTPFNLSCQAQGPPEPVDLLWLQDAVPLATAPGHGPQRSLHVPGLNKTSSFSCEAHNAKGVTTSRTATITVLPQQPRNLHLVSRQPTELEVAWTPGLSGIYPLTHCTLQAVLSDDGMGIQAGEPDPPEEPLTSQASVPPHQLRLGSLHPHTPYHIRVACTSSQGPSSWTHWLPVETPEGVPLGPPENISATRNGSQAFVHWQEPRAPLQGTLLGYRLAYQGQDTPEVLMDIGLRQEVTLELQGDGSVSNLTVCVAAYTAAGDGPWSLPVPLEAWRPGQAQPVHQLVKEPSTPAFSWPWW", "assay": "ELISA, ECD coated 1 µg/well, scFv 1 µg/mL, anti-tag-HRP", "protocol": "Extracellular domains of hTyro 3 (859-DK-100), hAxl (154-AL-100) or hMer (891-MR-100) from R&D Systems were coated onto 96-wells microtiter plates (1 μg/well) in PBS and incubated overnight at 4° C. Plates were washed three times with PBS and blocked in PBS/3% BSA for 1 hour at RT. Plates were washed as above and scFvs were added at 1 μg/mL (diluted in PBS) and incubated for 1 hour at RT. Plates were washed three times with PBST (PBS/0.01% Tween-20) and secondary antibody anti-FLAG-HRP was added (Abcam, ab49763, 1/5000 dilution in blocking buffer) for 1 hour at RT. Plates were washed as above with PBST and signal was developed with Ultra-TMB reagent (Thermo Scientific, 34028)."}
{"binder": "B1", "binding result": "no binding (tested: 1 µg/mL)"}
{"binder": "B2", "binding result": "no binding (tested: 1 µg/mL)"}
{"binder": "B3", "binding result": "no binding (tested: 1 µg/mL)"}
{"binder": "B4", "binding result": "no binding (tested: 1 µg/mL)"}
{"binder": "B5", "binding result": "no binding (tested: 1 µg/mL)"}
{"binder": "B6", "binding result": "no binding (tested: 1 µg/mL)"}
{"binder": "B7", "binding result": "no binding (tested: 1 µg/mL)"}
{"binder": "B8", "binding result": "no binding (tested: 1 µg/mL)"}
{"target": "T2, immunoglobulin-like domain Ig-2 of human Tyro3 (human, UniProt Q06418 139-220)", "T2 construct": "No fragment of Ig-2 alone was made", "T2 sequence": "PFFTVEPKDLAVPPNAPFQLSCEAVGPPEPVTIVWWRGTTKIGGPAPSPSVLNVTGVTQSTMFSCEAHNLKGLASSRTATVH", "assay": "double sandwich ELISA on captured fragments of hTyro3 ECD"}
{"binder": "B1", "binding result": "no binding (tested: 10 µg/mL)"}
{"binder": "B5", "binding result": "no binding (tested: 10 µg/mL)"}
{"binder": "B6", "binding result": "no binding (tested: 10 µg/mL)"}
{"binder": "B8", "binding result": "no binding (tested: 10 µg/mL)"}
{"target": "T3, cynomolgus Tyro3 ECD, His-Strep tagged", "T3 construct": "also called cyno TYRO3 ECD 8hisstrep", "T3 extracellular domain": "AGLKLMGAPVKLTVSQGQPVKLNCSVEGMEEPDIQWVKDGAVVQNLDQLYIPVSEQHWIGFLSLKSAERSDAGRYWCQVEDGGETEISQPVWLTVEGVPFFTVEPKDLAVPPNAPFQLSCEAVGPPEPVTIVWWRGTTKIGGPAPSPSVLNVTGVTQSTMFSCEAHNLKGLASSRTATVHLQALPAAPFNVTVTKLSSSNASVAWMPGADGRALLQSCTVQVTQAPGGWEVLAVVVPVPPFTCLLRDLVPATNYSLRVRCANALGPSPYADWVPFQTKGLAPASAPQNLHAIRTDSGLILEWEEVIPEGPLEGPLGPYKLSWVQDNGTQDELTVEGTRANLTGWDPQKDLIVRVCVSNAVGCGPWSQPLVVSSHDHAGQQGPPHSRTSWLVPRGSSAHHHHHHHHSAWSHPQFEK", "assay": "sandwich ELISA, Strep-tagged cynomolgus Tyro3 ECD captured on StrepMAB plate, scFv 3-fold from 10 µg/mL, anti-FLAG-HRP", "protocol": "[The procedure below names another species; the source lists this species under the same test.] A double sandwich ELISA was developed. This assay consisted in measuring the binding of the anti-Tyro3 antibodies to be tested on immobilized strep-tagged entire human Tyro3 ECD captured directly on ELISA plate pre-coated with an anti-strep mAb (StrepMAB-Immo coated microplates from IBA biotech). Briefly, the 96 wells of StrepMAB-Immo coated microplate were washed three times with 300 μL of the PBS Tween 0.2% (referred as ELISA washing solution). The capture of an excess of purified strep tagged hTyro3 ECD protein was achieved by a one hour incubation at room temperature. In these experiments, 3 μg of purified protein diluted in PBS, BSA 1% (referred as ELISA diluent solution) were immobilized per well. The wells were washed three times with 300 μL of the washing solution. The non-specific binding sites on the well surface were blocked during 60 min at room temperature with 200 μL/well of blocking solution (PBS, BSA 3%). The wells were washed five times with 300 μL of the washing solution. Then, 100 μl (in duplicates) of the different concentrations of anti-Tyro3 antibodies to be tested diluted in ELISA diluent solution, were added per well and allowed to incubate during 1 hour at room temperature. An Irrelevant control IgG2656 was also added in this experiment. For anti-Tyro3 antibodies in the ScFv format, experiments were performed with 6 concentrations in duplicates (FIG. 3A). For anti-Tyro3 antibodies in the IgG format, experiments were performed with 9 concentrations in duplicates (FIG. 3B). […] For IgGs experiments, starting concentration for first dilution was 3 μg/ml and then dilutions of 3 fold in the ELISA diluent solution were performed. The wells were washed five times with 300 μL of the washing solution. […] The mix was allowed to incubated 60 min at room temperature."}
{"binder": "B1", "binding result": "binds"}
{"binder": "B2", "binding result": "binds"}
{"binder": "B3", "binding result": "binds"}
{"binder": "B4", "binding result": "binds"}
{"binder": "B5", "binding result": "binds"}
{"binder": "B6", "binding result": "binds"}
{"binder": "B7", "binding result": "binds"}
{"binder": "B8", "binding result": "binds"}
{"target": "T4, recombinant His-Strep tagged human Tyro3 extracellular domain (human, UniProt Q06418 41-429)", "T4 construct": "also called hTyro3 ECD; full Tyro3 ECD", "T4 sequence": "T3 extracellular domain with A67V, V191I, G309A, H376R", "assay": "sandwich ELISA, Strep-tagged fragment captured on StrepMAB plate, scFv 10 µg/mL (Table 17), anti-FLAG-HRP"}
{"binder": "B5", "binding result": "binds"}
{"target": "T4, recombinant His-Strep tagged human …", "assay": "sandwich ELISA, Strep-tagged hTyro3 ECD captured on StrepMAB plate, scFv 3-fold from 10 µg/mL, anti-FLAG-HRP", "protocol": "A double sandwich ELISA was developed. This assay consisted in measuring the binding of the anti-Tyro3 antibodies to be tested on immobilized strep-tagged entire human Tyro3 ECD captured directly on ELISA plate pre-coated with an anti-strep mAb (StrepMAB-Immo coated microplates from IBA biotech). Briefly, the 96 wells of StrepMAB-Immo coated microplate were washed three times with 300 μL of the PBS Tween 0.2% (referred as ELISA washing solution). The capture of an excess of purified strep tagged hTyro3 ECD protein was achieved by a one hour incubation at room temperature. In these experiments, 3 μg of purified protein diluted in PBS, BSA 1% (referred as ELISA diluent solution) were immobilized per well. The wells were washed three times with 300 μL of the washing solution. The non-specific binding sites on the well surface were blocked during 60 min at room temperature with 200 μL/well of blocking solution (PBS, BSA 3%). The wells were washed five times with 300 μL of the washing solution. Then, 100 μl (in duplicates) of the different concentrations of anti-Tyro3 antibodies to be tested diluted in ELISA diluent solution, were added per well and allowed to incubate during 1 hour at room temperature. An Irrelevant control IgG2656 was also added in this experiment. For anti-Tyro3 antibodies in the ScFv format, experiments were performed with 6 concentrations in duplicates (FIG. 3A). […]"}
{"binder": "B6", "binding result": "binds"}
